B1: ZNF263 (parent)
chain: QRTHTGEKPYKCPECGEIFAHSSN

Variants of: B1
Assay: protein stability index of a GFP-peptide fusion (GPS, HEK-293T) (PSI 1-6); higher = more stable
Conditions: c terminus: a fixed tail appended
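Also: lentivirally expressed fusions sorted by FACS into six bins by GFP to DsRed ratio, PSI derived from sequencing read proportions per bin multiplied by bin number.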

Variant	protein stability index
QRTHTGEKPYKCPECGEIFAHSTN [S23T]	3.14
QRTHTGEKPYKCPECGEIFAHSCN [S23C]	5.55
QRTHTGEKPYKCPECGEIFAHSQN [S23Q]	3.31
QRTHTGEKPYKCPECGEIFAHSVN [S23V]	2.71
QRTHTGEKPYKCPECGEIFAHSWN [S23W]	2.36
QRTHTGEKPYKCPECGEIFAHSIN [S23I]	3.24
QRTHTGEKPYKCPECGEIFAHSKN [S23K]	3.79
QRTHTGEKPYKCPECGEIFAHSLN [S23L]	2.75
QRTHTGEKPYKCPECGEIFAHSNN [S23N]	3.34
QRTHTGEKPYKDPECGEIFAHSSN [C12D]	5.18
QRTHTGEKPYKVPECGEIFAHSSN [C12V]	3.31
QRTHTGEKPYKTPECGEIFAHSSN [C12T]	4.57
QRTHTGEKPYKPPECGEIFAHSSN [C12P]	4.42
QRTHTGEKPYKYPECGEIFAHSSN [C12Y]	4.3
QRTHTGEKPYKNPECGEIFAHSSN [C12N]	4.45
QRTHTGEKPYKRPECGEIFAHSSN [C12R]	4.2
QRTHTGEKPYKQPECGEIFAHSSN [C12Q]	4.35
QRTHTGEKPYKFPECGEIFAHSSN [C12F]	4.12
QRTHTGEKPYKIPECGEIFAHSSN [C12I]	3.6
QRTHTGEKPYKEPECGEIFAHSSN [C12E]	4.53
QRTHTGEKPYKCPECGEIFMHSSN [A20M]	3.25
QRTHTGEKPYKCPECGEIFHHSSN [A20H]	3.45
QRTHTGEKPYKCPECGEIFSHSSN [A20S]	3.83
QRTHTGEKPYKCPECGEIFQHSSN [A20Q]	3.59

Variant	protein stability index
QRTHTGEKPYKCPECGEIFVHSSN [A20V]	3.04
QRTHTGEKPYKCPECGEIFWHSSN [A20W]	3.07
QRTHTGEKPYKCPVCGEIFAHSSN [E14V]	2.95
QRTHTGEKPYKCPFCGEIFAHSSN [E14F]	3.09
QRTHTGEKPYKCPTCGEIFAHSSN [E14T]	3.12
QDTHTGEKPYKCPECGEIFAHSSN [R2D]	4.06
QMTHTGEKPYKCPECGEIFAHSSN [R2M]	2.62
QITHTGEKPYKCPECGEIFAHSSN [R2I]	3.32
QWTHTGEKPYKCPECGEIFAHSSN [R2W]	2.9
QVTHTGEKPYKCPECGEIFAHSSN [R2V]	2.88
QGTHTGEKPYKCPECGEIFAHSSN [R2G]	4.29
QLTHTGEKPYKCPECGEIFAHSSN [R2L]	3.6
QNTHTGEKPYKCPECGEIFAHSSN [R2N]	4.07
QKTHTGEKPYKCPECGEIFAHSSN [R2K]	2.92
QCTHTGEKPYKCPECGEIFAHSSN [R2C]	4.86
QETHTGEKPYKCPECGEIFAHSSN [R2E]	3.78
QRTHTGEKPYKCPETGEIFAHSSN [C15T]	4.63
QRTHTGEKPYKCPEQGEIFAHSSN [C15Q]	4.48
QRTHTGEKPYKCPEPGEIFAHSSN [C15P]	4.51
QRTHTGEKPYKCPEHGEIFAHSSN [C15H]	4.09
QRTHTGEKPYKCPEFGEIFAHSSN [C15F]	3.39
QRTHTGEKPYKCPEGGEIFAHSSN [C15G]	4.96
QRTHTGEKPYKCPEIGEIFAHSSN [C15I]	4.04
QRTHTGEKPYKCPENGEIFAHSSN [C15N]	4.76

Variant	protein stability index
QRTHTGEKNYKCPECGEIFAHSSN [P9N]	3.58
QRTHTGEKAYKCPECGEIFAHSSN [P9A]	3.52
QRTHTGEKWYKCPECGEIFAHSSN [P9W]	2.74
QRTHTGEKYYKCPECGEIFAHSSN [P9Y]	2.99
QRTHTGEKPYLCPECGEIFAHSSN [K11L]	3.39
QRTHTGEKPYNCPECGEIFAHSSN [K11N]	3.52
QRTHTGEKPYGCPECGEIFAHSSN [K11G]	3.54
QRTHTGEKPYACPECGEIFAHSSN [K11A]	3.56
QRTHTGEKPYHCPECGEIFAHSSN [K11H]	3.39
QRTHTGEKPYICPECGEIFAHSSN [K11I]	3.1
QRTHTGEKPYECPECGEIFAHSSN [K11E]	3.99
QRTHTGEKPYCCPECGEIFAHSSN [K11C]	3.62
QRTHTGEKPYKCPECGEIDAHSSN [F19D]	4.87
QRTHTGEKPYKCPECGEIYAHSSN [F19Y]	3.7
QRTHTGEKPYKCPECGEINAHSSN [F19N]	4.37
QRTHTGEKPYKCPECGEIWAHSSN [F19W]	2.47
QRTHTGEKPYKCPECGEIHAHSSN [F19H]	4.82
QRTHTGEKPYKCPECGEITAHSSN [F19T]	4.1
QRTHTGEKPYKCPECGEIPAHSSN [F19P]	3.75
QRTHTGEKPYKCPECGEIIAHSSN [F19I]	3.37
QRTHTGEKPYKCPECGEICAHSSN [F19C]	4.9
QRTHTGEKPYKCPECGEIEAHSSN [F19E]	4.25
QRTHTGEKPYKCPECGVIFAHSSN [E17V]	2.6
QRTHTGEKPYKCPECGLIFAHSSN [E17L]	2.6

Variant	protein stability index
QRTHTGEKPYKCPECGCIFAHSSN [E17C]	4.6
QRTHTGEKPYKCPECGIIFAHSSN [E17I]	2.85
QRTHTGEKPYKCPECGSIFAHSSN [E17S]	4.02
QRTHTGEKPYKCPECGDIFAHSSN [E17D]	3.13
QRTHTGEKPYKCPECGGIFAHSSN [E17G]	2.53
QRTHTGEKPYKCPECGFIFAHSSN [E17F]	4.53
QRTHTGEKPYKCPECGAIFAHSSN [E17A]	4.67
QRTHVGEKPYKCPECGEIFAHSSN [T5V]	3.06
QRTHSGEKPYKCPECGEIFAHSSN [T5S]	3.21
QRTHQGEKPYKCPECGEIFAHSSN [T5Q]	3.65
QRTHEGEKPYKCPECGEIFAHSSN [T5E]	2.89
QRTHKGEKPYKCPECGEIFAHSSN [T5K]	3
QRTHNGEKPYKCPECGEIFAHSSN [T5N]	3.57
QRTHTGEKPYKCPECGEIFAHSSR [N24R]	2.39
QRTHTGEKPYKCPECGEIFAHSSH [N24H]	3.49
QRTHTGEKPYKCPECGEIFAHSSW [N24W]	2.85
QRTHTGEKPYKCPECGEIFAHSSC [N24C]	5.06
QRTHTGEKPYKCPECGEIFAHSSP [N24P]	2.61
QRTHTGEKPYKCPECGEIFAHSSI [N24I]	2.65
QRTHTGEKPYKCPECGEIFAHSST [N24T]	3.54
QRTHTGEKPYKCPECGEIFAHSSD [N24D]	3.88
QRTHTGEKPYKCPECGEIFAHSSM [N24M]	2.75

— the supplement of paper PMC10567573
